Results on one protein are retold here after publication PMC9863593, “Crystal Structure of Allantoinase from Escherichia coli BL21: A Molecular Insight into a Role of the Active Site Loops in Catalysis” (Molecules, 2023).

The data set concerns the molecule itself. Briefly: crystal structure; hanging drop vapor diffusion, room temperature, 20% PEG8000, 100 mM CHES pH 9.5; protein at 30 mg/mL; space group C121; four monomers per asymmetric unit; 2.07 Å.

B1: Allantoinase from Escherichia coli BL21 (enzyme)
chain: MSFDLIIKNGTVILENEARVVDIAVKGGKIAAIGQDLGDAKEVMDASGLVVSPGMVDAHTHISEPGRSHWEGYETGTRAAAKGGITTMIEMPLNQLPATVDRASIELKFDAAKGKLTIDAAQLGGLVSYNIDRLHELDEVGVVGFKCFVATCGDRGIDNDFRDVNDWQFFKGAQKLGELGQPVLVHCENALICDELGEEAKREGRVTAHDYVASRPVFTEVEAIRRVLYLAKVAGCRLHVCHVSSPEGVEEVTRARQEGQDVTCESCPHYFVLDTDQFEEIGTLAKCSPPIRDLENQKGMWEKLFNGEIDCLVSDHSPCPPEMKAGNIMEAWGGIAGLQNCMDVMFDEAVQKRGMSLPMFGKLMATNAADIFGLQQKGRIAPGKDADFVFIQPNSSYVLTNDDLEYRHKVSPYVGRTIGARITKTILRGDVIYDIEQGFPVAPKGQFILKHQQ
modifications: carbamylated lysine at 146 (Kcx146)
notes: Allantoinase (allB, ECD_00462) of E. coli BL21; predicted monomer of 453 amino acid residues, 49.6 kDa; Zinc-amended enzyme with 2 Zn ions per monomer; construct limits and tag are not described here; Residues 452-453 are said to be seen in the structure; also called EcALLase-BL21; E. coli BL21 ALLase
Regarding B1, the “stoichiometry N” value was 4.

As a reminder, the stoichiometry N is a count of units in the complex or per binding partner.
